Laboratory results as given in patent publication US20240391954A1, “MC4R AGONIST PEPTIDES” (The Regents of the University of Michigan, priority 2021, published 2024).
Positions of bridges follow the written chain, without caps; N, C: chain ends. Non-standard residues stand in square brackets, D forms with d. Cit = NC(=O)NCCC[C@H](N)C(=O)O; Aib = CC(C)(N)C(=O)O

B1: CTX-1627 (peptide)
peptide: Ac-C[dA]R[dF]RWC-NH2
modifications: disulfide 1-7
SMILES: CC(=O)N[C@H]1CSSC[C@@H](C(N)=O)NC(=O)[C@H](Cc2c[nH]c3ccccc23)NC(=O)[C@H](CCCNC(=N)N)NC(=O)[C@@H](Cc2ccccc2)NC(=O)[C@H](CCCNC(=N)N)NC(=O)[C@@H](C)NC1=O
B2: CTX-1628 (peptide)
peptide: Ac-C[dA][Cit][dF]RWC-NH2
modifications: disulfide 1-7
SMILES: CC(=O)N[C@H]1CSSC[C@@H](C(N)=O)NC(=O)[C@H](Cc2c[nH]c3ccccc23)NC(=O)[C@H](CCCNC(=N)N)NC(=O)[C@@H](Cc2ccccc2)NC(=O)[C@H](CCCNC(N)=O)NC(=O)[C@@H](C)NC1=O
B3: CTX-1629 (peptide)
peptide: Ac-CGR[dF]RWC-NH2
modifications: disulfide 1-7
SMILES: CC(=O)N[C@H]1CSSC[C@@H](C(N)=O)NC(=O)[C@H](Cc2c[nH]c3ccccc23)NC(=O)[C@H](CCCNC(=N)N)NC(=O)[C@@H](Cc2ccccc2)NC(=O)[C@H](CCCNC(=N)N)NC(=O)CNC1=O
B4: CTX-1630 (peptide)
peptide: Ac-CG[Cit][dF]RWC-NH2
modifications: disulfide 1-7
SMILES: CC(=O)N[C@H]1CSSC[C@@H](C(N)=O)NC(=O)[C@H](Cc2c[nH]c3ccccc23)NC(=O)[C@H](CCCNC(=N)N)NC(=O)[C@@H](Cc2ccccc2)NC(=O)[C@H](CCCNC(N)=O)NC(=O)CNC1=O
B5: CTX-1632 (peptide)
peptide: Ac-C[Aib]R[dF]RWC-NH2
modifications: disulfide 1-7
SMILES: CC(=O)N[C@H]1CSSC[C@@H](C(N)=O)NC(=O)[C@H](Cc2c[nH]c3ccccc23)NC(=O)[C@H](CCCNC(=N)N)NC(=O)[C@@H](Cc2ccccc2)NC(=O)[C@H](CCCNC(=N)N)NC(=O)C(C)(C)NC1=O
B6: CTX-1633 (peptide)
peptide: Ac-C[Aib][Cit][dF]RWC-NH2
modifications: disulfide 1-7
SMILES: CC(=O)N[C@H]1CSSC[C@@H](C(N)=O)NC(=O)[C@H](Cc2c[nH]c3ccccc23)NC(=O)[C@H](CCCNC(=N)N)NC(=O)[C@@H](Cc2ccccc2)NC(=O)[C@H](CCCNC(N)=O)NC(=O)C(C)(C)NC1=O
B7: CTX-1634 (peptide)
peptide: Ac-C[Aib]H[dF]RFC-NH2
modifications: disulfide 1-7
SMILES: CC(=O)N[C@H]1CSSC[C@@H](C(N)=O)NC(=O)[C@H](Cc2ccccc2)NC(=O)[C@H](CCCNC(=N)N)NC(=O)[C@@H](Cc2ccccc2)NC(=O)[C@H](Cc2c[nH]cn2)NC(=O)C(C)(C)NC1=O
B8: CTX-1635 (peptide)
peptide: Ac-C[Aib]R[dF]RFC-NH2
modifications: disulfide 1-7
SMILES: CC(=O)N[C@H]1CSSC[C@@H](C(N)=O)NC(=O)[C@H](Cc2ccccc2)NC(=O)[C@H](CCCNC(=N)N)NC(=O)[C@@H](Cc2ccccc2)NC(=O)[C@H](CCCNC(=N)N)NC(=O)C(C)(C)NC1=O
B9: CTX-1636 (peptide)
peptide: Ac-C[Aib][Cit][dF]RFC-NH2
modifications: disulfide 1-7
SMILES: CC(=O)N[C@H]1CSSC[C@@H](C(N)=O)NC(=O)[C@H](Cc2ccccc2)NC(=O)[C@H](CCCNC(=N)N)NC(=O)[C@@H](Cc2ccccc2)NC(=O)[C@H](CCCNC(N)=O)NC(=O)C(C)(C)NC1=O
B10: CTX-1638 (peptide)
peptide: Ac-CGR[dF]RFC-NH2
modifications: disulfide 1-7
SMILES: CC(=O)N[C@H]1CSSC[C@@H](C(N)=O)NC(=O)[C@H](Cc2ccccc2)NC(=O)[C@H](CCCNC(=N)N)NC(=O)[C@@H](Cc2ccccc2)NC(=O)[C@H](CCCNC(=N)N)NC(=O)CNC1=O
B11: CTX-1639 (peptide)
peptide: Ac-CG[Cit][dF]RFC-NH2
modifications: disulfide 1-7
SMILES: CC(=O)N[C@H]1CSSC[C@@H](C(N)=O)NC(=O)[C@H](Cc2ccccc2)NC(=O)[C@H](CCCNC(=N)N)NC(=O)[C@@H](Cc2ccccc2)NC(=O)[C@H](CCCNC(N)=O)NC(=O)CNC1=O
B12: CTX-1642 (peptide)
peptide: {CH2CO}-[dA]R[dF]RWC-NH2
modifications: thioether N-6
SMILES: C[C@H]1NC(=O)CSC[C@@H](C(N)=O)NC(=O)[C@H](Cc2c[nH]c3ccccc23)NC(=O)[C@H](CCCNC(=N)N)NC(=O)[C@@H](Cc2ccccc2)NC(=O)[C@H](CCCNC(=N)N)NC1=O
B13: CTX-1643 (peptide)
peptide: {CH2CO}-[dA][Cit][dF]RWC-NH2
modifications: thioether N-6
SMILES: C[C@H]1NC(=O)CSC[C@@H](C(N)=O)NC(=O)[C@H](Cc2c[nH]c3ccccc23)NC(=O)[C@H](CCCNC(=N)N)NC(=O)[C@@H](Cc2ccccc2)NC(=O)[C@H](CCCNC(N)=O)NC1=O
B14: CTX-1644 (peptide)
peptide: {CH2CO}-GH[dF]RWC-NH2
modifications: thioether N-6
SMILES: N=C(N)NCCC[C@@H]1NC(=O)[C@@H](Cc2ccccc2)NC(=O)[C@H](Cc2c[nH]cn2)NC(=O)CNC(=O)CSC[C@@H](C(N)=O)NC(=O)[C@H](Cc2c[nH]c3ccccc23)NC1=O
B15: CTX-1645 (peptide)
peptide: {CH2CO}-GR[dF]RWC-NH2
modifications: thioether N-6
SMILES: N=C(N)NCCC[C@@H]1NC(=O)CNC(=O)CSC[C@@H](C(N)=O)NC(=O)[C@H](Cc2c[nH]c3ccccc23)NC(=O)[C@H](CCCNC(=N)N)NC(=O)[C@@H](Cc2ccccc2)NC1=O
B16: CTX-1646 (peptide)
peptide: {CH2CO}-G[Cit][dF]RWC-NH2
modifications: thioether N-6
SMILES: N=C(N)NCCC[C@@H]1NC(=O)[C@@H](Cc2ccccc2)NC(=O)[C@H](CCCNC(N)=O)NC(=O)CNC(=O)CSC[C@@H](C(N)=O)NC(=O)[C@H](Cc2c[nH]c3ccccc23)NC1=O
B17: CTX-1647 (peptide)
peptide: {CH2CO}-[Aib]H[dF]RWC-NH2
modifications: thioether N-6
SMILES: CC1(C)NC(=O)CSC[C@@H](C(N)=O)NC(=O)[C@H](Cc2c[nH]c3ccccc23)NC(=O)[C@H](CCCNC(=N)N)NC(=O)[C@@H](Cc2ccccc2)NC(=O)[C@H](Cc2c[nH]cn2)NC1=O
B18: CTX-1648 (peptide)
peptide: {CH2CO}-[Aib]R[dF]RWC-NH2
modifications: thioether N-6
SMILES: CC1(C)NC(=O)CSC[C@@H](C(N)=O)NC(=O)[C@H](Cc2c[nH]c3ccccc23)NC(=O)[C@H](CCCNC(=N)N)NC(=O)[C@@H](Cc2ccccc2)NC(=O)[C@H](CCCNC(=N)N)NC1=O

Legend:
Experiment in all cases: cell-based or functional assay
human MC3R = human MC3R (human, UniProt P41968 1-323)
Chain of human MC3R (P41968 whole entry): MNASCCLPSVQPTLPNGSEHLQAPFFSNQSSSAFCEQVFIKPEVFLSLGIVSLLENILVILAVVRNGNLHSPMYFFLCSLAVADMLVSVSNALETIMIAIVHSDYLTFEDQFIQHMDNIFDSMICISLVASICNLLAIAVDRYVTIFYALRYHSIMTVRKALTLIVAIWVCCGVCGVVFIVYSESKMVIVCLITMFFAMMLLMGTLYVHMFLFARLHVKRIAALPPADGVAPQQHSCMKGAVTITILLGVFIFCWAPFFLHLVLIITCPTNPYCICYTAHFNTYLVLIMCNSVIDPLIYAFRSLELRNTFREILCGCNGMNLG

human MC4R receptor [1] = biological target: T1, human MC4R receptor (human, UniProt P32245 1-332)
T1 sequence (P32245 whole entry): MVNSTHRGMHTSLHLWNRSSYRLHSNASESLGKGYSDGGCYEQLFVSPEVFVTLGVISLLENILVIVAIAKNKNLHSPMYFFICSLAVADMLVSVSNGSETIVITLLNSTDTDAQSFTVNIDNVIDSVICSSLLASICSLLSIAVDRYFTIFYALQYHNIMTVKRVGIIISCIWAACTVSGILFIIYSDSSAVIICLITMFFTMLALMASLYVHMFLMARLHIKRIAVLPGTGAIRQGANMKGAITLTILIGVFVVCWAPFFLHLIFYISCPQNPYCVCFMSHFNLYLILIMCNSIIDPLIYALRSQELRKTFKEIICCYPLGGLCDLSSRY

human MC4R receptor [2] = biological target: T1, human MC4R receptor; remark: listed apart in the source

Binder	% max activation (human MC3R)	cAMP EC50 (human MC3R)	% max activation (human MC4R receptor [1])	cAMP EC50 (human MC4R receptor [1])	MC4R selectivity vs MC1R (human MC4R receptor [2])	MC4R selectivity vs MC3R (human MC4R receptor [2])
B1	98%	3.7 nM	104%	1.4 nM	9.33	2.47
B2	45%	92 nM	99%	14 nM	191	6.37
B3	83%	13 nM	102%	0.67 nM	15	19
B4	35%	614 nM	102%	22 nM	1820	28
B5	77%	19 nM	105%	0.51 nM	3.18	36
B6	45%	290 nM	110%	2.8 nM	942	104
B7	94%	56 nM	107%	8.5 nM	4.02	6.68
B8	70%	380 nM	112%	67 nM	1.19	5.7
B9	44%	7460 nM	102%	791 nM	> 12	9.44
B10	75%	408 nM	110%	351 nM	1.04	1.66
B11	44%	7690 nM	88%	2730 nM	8.32	2.82
B12	90%	83 nM	107%	2.9 nM	13	29
B13	81%	2550 nM	111%	19 nM	261	133
B14	107%	120 nM	111%	2.3 nM	4.84	53
B15	97%	68 nM	110%	1.6 nM	9.04	42
B16	70%	2420 nM	103%	13 nM	> 770	193
B17	102%	21 nM	109%	0.68 nM	3.66	30
B18	91%	72 nM	101%	1.1 nM	13	63
